From paper PMC4191399
Where a chain is given by its changes, count along the chain named. pKd: −log10 of the molar value.

Tests used:
Experiment in all cases: fluorescence polarization
Settings in all cases: internal 6-carboxyfluorescein in backbone between U12 and C13 (central tetraloop bases); 25 mM MOPS pH 7.4, 150 mM KCl, 2 mM DTT, 2 mM MgCl2, 0.01% Triton X-100, 1 nM RNA, room temperature, 1 h
[1] = target: T1, RIG-I K788A/R791A K788A;R791A (Homo sapiens) (UniProt O95786)
T1 sequence: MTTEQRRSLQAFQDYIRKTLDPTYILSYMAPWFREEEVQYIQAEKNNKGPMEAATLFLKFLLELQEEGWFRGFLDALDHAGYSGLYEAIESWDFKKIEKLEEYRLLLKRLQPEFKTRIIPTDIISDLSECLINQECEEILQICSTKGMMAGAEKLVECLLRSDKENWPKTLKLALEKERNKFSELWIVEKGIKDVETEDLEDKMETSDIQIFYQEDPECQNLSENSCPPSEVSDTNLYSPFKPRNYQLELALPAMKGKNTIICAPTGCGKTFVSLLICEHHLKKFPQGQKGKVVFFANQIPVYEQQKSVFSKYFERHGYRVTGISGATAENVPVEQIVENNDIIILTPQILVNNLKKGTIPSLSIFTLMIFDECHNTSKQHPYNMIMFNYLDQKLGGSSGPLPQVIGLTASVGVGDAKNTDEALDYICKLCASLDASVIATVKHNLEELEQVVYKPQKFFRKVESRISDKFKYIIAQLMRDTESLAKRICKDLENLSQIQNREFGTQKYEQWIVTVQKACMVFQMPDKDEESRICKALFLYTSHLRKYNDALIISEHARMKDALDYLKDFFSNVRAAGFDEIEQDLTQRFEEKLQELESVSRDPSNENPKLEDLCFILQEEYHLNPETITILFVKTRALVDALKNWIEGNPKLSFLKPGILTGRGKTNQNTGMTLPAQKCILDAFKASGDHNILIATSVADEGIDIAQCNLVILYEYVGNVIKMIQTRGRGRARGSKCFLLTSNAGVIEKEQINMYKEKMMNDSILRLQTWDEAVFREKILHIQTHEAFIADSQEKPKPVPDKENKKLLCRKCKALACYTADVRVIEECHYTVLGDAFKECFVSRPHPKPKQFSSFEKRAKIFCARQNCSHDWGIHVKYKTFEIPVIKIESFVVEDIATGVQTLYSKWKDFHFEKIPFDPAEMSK

[2] = target: T2, RIG-I K788A K788A (Homo sapiens) (UniProt O95786)
T2 sequence: T1 sequence with A791R

[3] = target: T3, RIG-I Q784A/K788A Q784A;K788A (Homo sapiens) (UniProt O95786)
T3 sequence: T1 sequence with Q784A, A791R

## GGACGUACGUUUCGACGUACGUCC [5'OH10L-F]
[1]
  pKd: 6.78
[2]
  pKd: 7.66
[3]
  pKd: 7.07
